Legend:
Assay in all cases: cell_activity
[1] = target: IA44 R267H (Escherichia coli) (UniProt P0A9E0); details: twice the Tmax of IA; E. coli HC175
[2] = target: IA32 L39M,S127C (Escherichia coli) (UniProt P0A9E0); details: half the Tmax of IA; E. coli HC175
[3] = target: IA (Idi-AraC DBD chimera) (Escherichia coli) (UniProt P0A9E0); details: no mevalonate

Sequence: TAGCATTTTTATCCATAAGATTAGCGGATCCTACCTGA (double strand) [I1I2 in PBAD]
- activity (Tmax relative to IA) [1]: 2
- activity (Tmax relative to IA) [2]: 0.5
- activity ([3]; 0.36 with 10 mM mevalonate, E. coli HC175): 1 relative RFP

Sequence: TAGCGGATCCTACCTGAAGATTAGCATTTTTATCCATA (double strand) [I2I1 in PBAD]
- activity ([3]; 0.56 with 10 mM mevalonate): 1.12 relative RFP

— patent publication US20150353614
